Results: IntAct's records for PubMed 20890305

Biological target: MAP3K11 (UniProt Q16584)
Sequence (Q16584 whole entry, looked up): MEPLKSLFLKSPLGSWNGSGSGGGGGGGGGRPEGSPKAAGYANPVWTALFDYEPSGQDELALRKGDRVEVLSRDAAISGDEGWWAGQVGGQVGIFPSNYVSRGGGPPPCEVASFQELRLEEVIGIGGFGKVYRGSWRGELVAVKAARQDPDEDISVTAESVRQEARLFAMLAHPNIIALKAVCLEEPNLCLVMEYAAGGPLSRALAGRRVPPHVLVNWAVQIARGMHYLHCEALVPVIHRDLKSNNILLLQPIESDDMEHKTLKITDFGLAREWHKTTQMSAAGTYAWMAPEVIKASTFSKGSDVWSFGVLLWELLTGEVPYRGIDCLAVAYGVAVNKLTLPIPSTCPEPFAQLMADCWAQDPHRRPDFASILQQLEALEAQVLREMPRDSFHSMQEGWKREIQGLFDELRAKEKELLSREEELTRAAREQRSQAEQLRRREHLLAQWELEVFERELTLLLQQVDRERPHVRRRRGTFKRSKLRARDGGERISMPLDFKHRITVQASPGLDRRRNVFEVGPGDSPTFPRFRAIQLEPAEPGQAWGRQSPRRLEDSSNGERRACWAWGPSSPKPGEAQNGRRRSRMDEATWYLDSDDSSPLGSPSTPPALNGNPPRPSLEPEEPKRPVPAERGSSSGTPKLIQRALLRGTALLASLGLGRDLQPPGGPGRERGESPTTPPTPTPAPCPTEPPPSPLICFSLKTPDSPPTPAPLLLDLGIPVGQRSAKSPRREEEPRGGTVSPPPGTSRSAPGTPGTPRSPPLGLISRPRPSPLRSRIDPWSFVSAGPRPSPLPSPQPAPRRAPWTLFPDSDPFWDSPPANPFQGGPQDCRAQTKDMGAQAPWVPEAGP

Cell division control protein 42 homolog (Homo sapiens), P60953 G12V, sequence (P60953 whole entry G12V): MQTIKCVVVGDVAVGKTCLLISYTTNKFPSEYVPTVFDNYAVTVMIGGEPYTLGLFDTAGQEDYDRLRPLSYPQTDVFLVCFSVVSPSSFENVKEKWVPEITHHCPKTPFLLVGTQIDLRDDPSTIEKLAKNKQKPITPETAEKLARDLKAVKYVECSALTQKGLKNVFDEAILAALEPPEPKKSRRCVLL
Cell division control protein 42 homolog (Homo sapiens), P60953 T17N, sequence (P60953 whole entry T17N): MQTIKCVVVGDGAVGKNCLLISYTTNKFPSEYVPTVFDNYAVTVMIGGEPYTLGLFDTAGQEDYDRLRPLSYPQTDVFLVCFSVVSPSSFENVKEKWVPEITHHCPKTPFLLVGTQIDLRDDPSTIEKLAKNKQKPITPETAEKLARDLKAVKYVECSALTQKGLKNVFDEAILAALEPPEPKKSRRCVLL

Row | Substance | effect of a mutation on the interaction
1 | Cell division control protein 42 homolog (Homo sapiens), P60953 G12V | decreasing interaction
2 | Cell division control protein 42 homolog (Homo sapiens), P60953 T17N | disrupting interaction
